According to patent US20210324054A1:

The binders below were run against DN-IV quality control recombinant protein (produced by the company) (dengue virus) (assay: BLI, antibody on AMC sensor).

| Binder | Kd | koff | kon |
| --- | --- | --- | --- |
| Mutation 1-43 (antibody, V domains shown) VH: EVQLQQPGPELVKPGASVKMSCKASGYTFTSSVIHWVRQKPGQGLEWIGYMNPYNDGIKYNEKFIGKAILTSDKSSSTAYMQLSSLTSEDSAVYYCTKEGLFYVMDYWGQGTSVTVSS VL: QIVLTQSPAIMSASPGEKVTMTCSATSSLSYMHWYQQKSGTSPKRWIYDTSKLASGVPVRFSGSGSGTSYSLTISSMEAEDAATYFCQYWRSDLPTFGAGTKLELKR | 0.624 nM | 0.000256 s⁻¹ | 410000 M⁻¹ s⁻¹ |
| Mutation 1-48 (antibody, V domains shown) VH: EVQLQQPGPELVKPGASVKMSCKASGYTFTSTVIHWVRQKPGQGLEWIGYMNPYNDGLKYNEKFIGKAILTSDKSSSTAYMQLSSLTSEDSAVYYCTKEGLFYVMDYWGQGTSVTVSS VL: QIVLTQSPAIMSASPGEKVTMTCSATSSLSYMHWYQQKSGTSPKRWIYDSSKLASGVPVRFSGSGSGTSYSLTISSMEAEDAATYFCQWWRSDLPTFGAGTKLELKR | 0.665 nM | 0.000248 s⁻¹ | 373000 M⁻¹ s⁻¹ |
| Mutation 1-45 (antibody, V domains shown) VH: EVQLQQPGPELVKPGASVKMSCKASGYTFTSTVIHWVRQKPGQGLEWIGYMNPYNDGIKYNEKFIGKAILTSDKSSSTAYMQLSSLTSEDSAVYYCTKEGLFYVFDYWGQGTSVTVSS VL: QIVLTQSPAIMSASPGEKVTMTCSATSSLSYMHWYQQKSGTSPKRWIYDSSKLASGVPVRFSGSGSGTSYSLTISSMEAEDAATYFCQWWRSDLPTFGAGTKLELKR | 4.22 nM | 0.000174 s⁻¹ | 41200 M⁻¹ s⁻¹ |
| Mutation 1-1 (antibody, V domains shown) VH: EVQLQQPGPELVKPGASVKMSCKASGYTFTSSVIHWVRQKPGQGLEWIGYMNPYNDGIKYNEKFIGKAILTSDKSSSTAYMQLSSLTSEDSAVYYCTKEGLFYVFDYWGQGTSVTVSS VL: QIVLTQSPAIMSASPGEKVTMTCSATSSLSYMHWYQQKSGTSPKRWIYDSSKLASGVPVRFSGSGSGTSYSLTISSMEAEDAATYFCQWWRSDLPTFGAGTKLELKR | 0.445 nM | 0.000181 s⁻¹ | 407000 M⁻¹ s⁻¹ |
| Mutation 1-5 (antibody, V domains shown) VH: EVQLQQPGPELVKPGASVKMSCKASGYTFTSYVIHWVRQKPGQGLEWIGYMNPYNDGIKYNEKFIGKAILTSDKSSSTAYMQLSSLTSEDSAVYYCTREGLFYVFDYWGQGTSVTVSS VL: QIVLTQSPAIMSASPGEKVTMTCSATSSVSYMHWYQQKSGTSPKRWIYDSSKLASGVPVRFSGSGSGTSYSLTISSMEAEDAATYFCQQWRSDLPTFGAGTKLELKR | 0.508 nM | 0.000213 s⁻¹ | 419000 M⁻¹ s⁻¹ |
| Mutation 1-49 (antibody, V domains shown) VH: EVQLQQPGPELVKPGASVKMSCKASGYTFTSSVIHWVRQKPGQGLEWIGYMNPYNDGIKYNEKFIGKAILTSDKSSSTAYMQLSSLTSEDSAVYYCTREGLFYVFDYWGQGTSVTVSS VL: QIVLTQSPAIMSASPGEKVTMTCSATSSVSYMHWYQQKSGTSPKRWIYDTSKLASGVPVRFSGSGSGTSYSLTISSMEAEDAATYFCQQWRSDLPTFGAGTKLELKR | 0.765 nM | 0.000299 s⁻¹ | 391000 M⁻¹ s⁻¹ |
| Mutation 1-44 (antibody, V domains shown) VH: EVQLQQPGPELVKPGASVKMSCKASGYTFTSYVIHWVRQKPGQGLEWIGYMNPYNDGLKYNEKFIGKAILTSDKSSSTAYMQLSSLTSEDSAVYYCTREGLFYVFDYWGQGTSVTVSS VL: QIVLTQSPAIMSASPGEKVTMTCSATSSVSYMHWYQQKSGTSPKRWIYDSSKLASGVPVRFSGSGSGTSYSLTISSMEAEDAATYFCQYWRSDLPTFGAGTKLELKR | 2.63 nM | 0.00011 s⁻¹ | 41800 M⁻¹ s⁻¹ |
| Mutation 1-50 (antibody, V domains shown) VH: EVQLQQPGPELVKPGASVKMSCKASGYTFTSYVIHWVRQKPGQGLEWIGYMNPYNDGLKYNEKFIGKAILTSDKSSSTAYMQLSSLTSEDSAVYYCTKEGLFYVFDYWGQGTSVTVSS VL: QIVLTQSPAIMSASPGEKVTMTCSATSSISYMHWYQQKSGTSPKRWIYDTSKLASGVPVRFSGSGSGTSYSLTISSMEAEDAATYFCQYWRSDLPTFGAGTKLELKR | 3.79 nM | 0.000167 s⁻¹ | 44100 M⁻¹ s⁻¹ |
| Mutation 1-2 (antibody, V domains shown) VH: EVQLQQPGPELVKPGASVKMSCKASGYTFTSYVIHWVRQKPGQGLEWIGYMNPYNDGLKYNEKFIGKAILTSDKSSSTAYMQLSSLTSEDSAVYYCTREGLFYVMDYWGQGTSVTVSS VL: QIVLTQSPAIMSASPGEKVTMTCSATSSVSYMHWYQQKSGTSPKRWIYDTSKLASGVPVRFSGSGSGTSYSLTISSMEAEDAATYFCQQWRSDLPTFGAGTKLELKR | 2.79 nM | 0.000116 s⁻¹ | 41600 M⁻¹ s⁻¹ |
| Mutation 1-4 (antibody, V domains shown) VH: EVQLQQPGPELVKPGASVKMSCKASGYTFTSSVIHWVRQKPGQGLEWIGYMNPYNDGLKYNEKFIGKAILTSDKSSSTAYMQLSSLTSEDSAVYYCTKEGLFYVMDYWGQGTSVTVSS VL: QIVLTQSPAIMSASPGEKVTMTCSATSSLSYMHWYQQKSGTSPKRWIYDTSKLASGVPVRFSGSGSGTSYSLTISSMEAEDAATYFCQWWRSDLPTFGAGTKLELKR | 0.478 nM | 0.000234 s⁻¹ | 490000 M⁻¹ s⁻¹ |
| Mutation 1-3 (antibody, V domains shown) VH: EVQLQQPGPELVKPGASVKMSCKASGYTFTSTVIHWVRQKPGQGLEWIGYMNPYNDGIKYNEKFIGKAILTSDKSSSTAYMQLSSLTSEDSAVYYCTREGLFYVFDYWGQGTSVTVSS VL: QIVLTQSPAIMSASPGEKVTMTCSATSSISYMHWYQQKSGTSPKRWIYDSSKLASGVPVRFSGSGSGTSYSLTISSMEAEDAATYFCQYWRSDLPTFGAGTKLELKR | 2.9 nM | 0.000119 s⁻¹ | 41100 M⁻¹ s⁻¹ |
| Mutation 1-46 (antibody, V domains shown) VH: EVQLQQPGPELVKPGASVKMSCKASGYTFTSSVIHWVRQKPGQGLEWIGYMNPYNDGLKYNEKFIGKAILTSDKSSSTAYMQLSSLTSEDSAVYYCTREGLFYVMDYWGQGTSVTVSS VL: QIVLTQSPAIMSASPGEKVTMTCSATSSVSYMHWYQQKSGTSPKRWIYDTSKLASGVPVRFSGSGSGTSYSLTISSMEAEDAATYFCQQWRSDLPTFGAGTKLELKR | 0.569 nM | 0.000222 s⁻¹ | 390000 M⁻¹ s⁻¹ |
| Mutation 1-47 (antibody, V domains shown) VH: EVQLQQPGPELVKPGASVKMSCKASGYTFTSYVIHWVRQKPGQGLEWIGYMNPYNDGIKYNEKFIGKAILTSDKSSSTAYMQLSSLTSEDSAVYYCTREGLFYVFDYWGQGTSVTVSS VL: QIVLTQSPAIMSASPGEKVTMTCSATSSISYMHWYQQKSGTSPKRWIYDSSKLASGVPVRFSGSGSGTSYSLTISSMEAEDAATYFCQYWRSDLPTFGAGTKLELKR | 0.57 nM | 0.000211 s⁻¹ | 370000 M⁻¹ s⁻¹ |

Further lines, results first:

| Kd | koff | kon | Binder |
| --- | --- | --- | --- |
| 0.5 nM | 0.000201 s⁻¹ | 402000 M⁻¹ s⁻¹ | Mutation 1-51 (antibody, V domains shown) VH: EVQLQQPGPELVKPGASVKMSCKASGYTFTSTVIHWVRQKPGQGLEWIGYMNPYNDGLKYNEKFIGKAILTSDKSSSTAYMQLSSLTSEDSAVYYCTREGLFYVMDYWGQGTSVTVSS VL: QIVLTQSPAIMSASPGEKVTMTCSATSSISYMHWYQQKSGTSPKRWIYDSSKLASGVPVRFSGSGSGTSYSLTISSMEAEDAATYFCQWWRSDLPTFGAGTKLELKR |
| 35.4 nM | 0.000162 s⁻¹ | 4570 M⁻¹ s⁻¹ | WT 1-19 (antibody, V domains shown) VH: EVQLQQPGPELVKPGASVKMSCKASGYTVTSYVIHWVRQKPGQGLEWIGYMNAYNDGIKYNDKFIGKAILTSDKSSSTAYMQLSSLTSEDSAVYYCTKEGLFYVMDYWGQGTSVTVSS VL: QIVLTQSPAIMSASPGEKVTMTCSGTSSVSYMHWYQQKSGTSPKRWIYDSSKLASPVPVRFSGSGSGTSYSLTISSMEAEDAATYFCQQWRSVLPTFGAGTKLELKR |
| 57.1 nM | 0.000244 s⁻¹ | 4270 M⁻¹ s⁻¹ | WT 1-11 (antibody, V domains shown) VH: EVQLQQPGPELVKPGASVKMSCKASGYTVTSTVIHWVRQKPGQGLEWIGYMNAYNDGIKYNDKFIGKAILTSDKSSSTAYMQLSSLTSEDSAVYYCTREGLFYVMDYWGQGTSVTVSS VL: QIVLTQSPAIMSASPGEKVTMTCSGTSSISYMHWYQQKSGTSPKRWIYDTSKLASPVPVRFSGSGSGTSYSLTISSMEAEDAATYFCQYWRSVLPTFGAGTKLELKR |
| 57.8 nM | 0.000264 s⁻¹ | 4570 M⁻¹ s⁻¹ | WT 1-5 (antibody, V domains shown) VH: EVQLQQPGPELVKPGASVKMSCKASGYTVTSYVIHWVRQKPGQGLEWIGYMNAYNDGLKYNDKFIGKAILTSDKSSSTAYMQLSSLTSEDSAVYYCTKEGLFYVFDYWGQGTSVTVSS VL: QIVLTQSPAIMSASPGEKVTMTCSGTSSVSYMHWYQQKSGTSPKRWIYDSSKLASPVPVRFSGSGSGTSYSLTISSMEAEDAATYFCQWWRSVLPTFGAGTKLELKR |
| 45.6 nM | 0.000188 s⁻¹ | 4120 M⁻¹ s⁻¹ | WT 1-14 (antibody, V domains shown) VH: EVQLQQPGPELVKPGASVKMSCKASGYTVTSSVIHWVRQKPGQGLEWIGYMNAYNDGLKYNDKFIGKAILTSDKSSSTAYMQLSSLTSEDSAVYYCTREGLFYVFDYWGQGTSVTVSS VL: QIVLTQSPAIMSASPGEKVTMTCSGTSSLSYMHWYQQKSGTSPKRWIYDSSKLASPVPVRFSGSGSGTSYSLTISSMEAEDAATYFCQWWRSVLPTFGAGTKLELKR |
| 2.71 nM | 0.000115 s⁻¹ | 42500 M⁻¹ s⁻¹ | Mutation 1-53 (antibody, V domains shown) VH: EVQLQQPGPELVKPGASVKMSCKASGYTFTSYVIHWVRQKPGQGLEWIGYMNPYNDGIKYNEKFIGKAILTSDKSSSTAYMQLSSLTSEDSAVYYCTREGLFYVMDYWGQGTSVTVSS VL: QIVLTQSPAIMSASPGEKVTMTCSATSSVSYMHWYQQKSGTSPKRWIYDTSKLASGVPVRFSGSGSGTSYSLTISSMEAEDAATYFCQYWRSDLPTFGAGTKLELKR |
| 3.02 nM | 0.000124 s⁻¹ | 41000 M⁻¹ s⁻¹ | Mutation 1-52 (antibody, V domains shown) VH: EVQLQQPGPELVKPGASVKMSCKASGYTFTSSVIHWVRQKPGQGLEWIGYMNPYNDGLKYNEKFIGKAILTSDKSSSTAYMQLSSLTSEDSAVYYCTKEGLFYVFDYWGQGTSVTVSS VL: QIVLTQSPAIMSASPGEKVTMTCSATSSLSYMHWYQQKSGTSPKRWIYDSSKLASGVPVRFSGSGSGTSYSLTISSMEAEDAATYFCQQWRSDLPTFGAGTKLELKR |
